Laboratory results taken from patent publication US20160304622A1 (GENEFRONTIER, published 2016).

Assays:
Assay in all cases: immunoblotting after reducing SDS-PAGE
[1] = target: T1, recombinant human ADAM10 (R&D Systems) (human, UniProt O14672 214-672, limits assumed)
T1 sequence (looked up): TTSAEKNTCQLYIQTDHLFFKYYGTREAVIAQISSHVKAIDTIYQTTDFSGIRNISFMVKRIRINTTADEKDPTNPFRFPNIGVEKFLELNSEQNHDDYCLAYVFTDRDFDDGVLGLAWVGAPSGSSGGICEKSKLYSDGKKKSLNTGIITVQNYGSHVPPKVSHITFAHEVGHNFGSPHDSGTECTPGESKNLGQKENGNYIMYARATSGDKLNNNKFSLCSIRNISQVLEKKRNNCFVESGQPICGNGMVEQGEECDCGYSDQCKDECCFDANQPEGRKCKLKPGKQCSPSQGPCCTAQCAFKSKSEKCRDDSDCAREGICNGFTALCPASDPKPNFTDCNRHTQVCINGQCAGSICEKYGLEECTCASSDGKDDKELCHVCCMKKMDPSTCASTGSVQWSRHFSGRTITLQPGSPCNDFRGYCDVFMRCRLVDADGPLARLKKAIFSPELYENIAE
Excerpt: (§1) Recombinant proteins of human ADAMTS1 (R&D Systems), ADAMTS4, ADAMTS5 (R&D Systems), ADAMTS15 (R&D Systems), ADAM10 (R&D Systems), ADAM12 (Mochida Pharmaceutical Co., Ltd., Tokyo, Japan), ADAM17 (R&D Systems) and MMP-13 (Millipore, Billerica, Mass.) and purified human MMP-1, MMP-2, MMP-3 and MMP-9 (Daiichi Fine Chemical, Co., Ltd., Toyama, Japan) were subjected to sodium dodecyl sulfate-polyacrylamide gel electrophoresis (SDS-PAGE) under reducing conditions, and the samples resolved on the gels were transferred onto polyvinylidene difluoride (PVDF) membranes. […] After washing with phosphate buffered saline containing 0.1% Tween 20, the membranes were reacted with horseradish peroxidase-conjugated secondary antibody against human IgG (Invitrogen, Carlsbad, Calif.) for 1 h at room temperature. A chemiluminescence reagent (Pierce ECL western blotting substrate; Thermo Fisher Scientific, Waltham, Mass.) was used to make the labeled protein bands visible. All the samples were also examined on silver-stained gels, which were prepared by silver stain kit (Cosmo Bio Co., Ltd, […].).

[2] = target: T2, purified human MMP-2 (Daiichi Fine Chemical) (human, UniProt P08253 30-660, limits assumed)
T2 sequence (looked up): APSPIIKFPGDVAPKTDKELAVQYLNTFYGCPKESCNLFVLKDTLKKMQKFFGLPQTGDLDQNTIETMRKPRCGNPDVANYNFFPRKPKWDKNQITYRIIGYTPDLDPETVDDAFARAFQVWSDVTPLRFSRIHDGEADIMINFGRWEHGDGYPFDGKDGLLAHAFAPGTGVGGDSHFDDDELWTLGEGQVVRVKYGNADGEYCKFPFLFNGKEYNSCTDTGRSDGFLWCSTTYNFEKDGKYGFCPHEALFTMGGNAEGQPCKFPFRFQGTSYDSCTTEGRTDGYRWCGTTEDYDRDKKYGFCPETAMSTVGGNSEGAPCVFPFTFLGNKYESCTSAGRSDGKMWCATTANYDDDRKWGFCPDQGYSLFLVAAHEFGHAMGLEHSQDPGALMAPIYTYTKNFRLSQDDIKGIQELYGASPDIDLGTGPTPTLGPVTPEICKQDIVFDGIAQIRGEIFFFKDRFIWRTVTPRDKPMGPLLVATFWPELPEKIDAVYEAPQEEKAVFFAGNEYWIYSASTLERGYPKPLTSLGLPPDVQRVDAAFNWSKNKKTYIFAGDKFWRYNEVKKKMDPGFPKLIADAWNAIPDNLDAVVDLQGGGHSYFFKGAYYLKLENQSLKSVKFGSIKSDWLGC
Excerpt: as §1

[3] = target: purified human MMP-3 (Daiichi Fine Chemical) (human, UniProt P08254 18-477, limits assumed)
Excerpt: as §1

[4] = target: T3, recombinant human ADAM12 (Mochida Pharmaceutical Co., Ltd.) (human, UniProt O43184 208-708, limits assumed)
T3 sequence (looked up): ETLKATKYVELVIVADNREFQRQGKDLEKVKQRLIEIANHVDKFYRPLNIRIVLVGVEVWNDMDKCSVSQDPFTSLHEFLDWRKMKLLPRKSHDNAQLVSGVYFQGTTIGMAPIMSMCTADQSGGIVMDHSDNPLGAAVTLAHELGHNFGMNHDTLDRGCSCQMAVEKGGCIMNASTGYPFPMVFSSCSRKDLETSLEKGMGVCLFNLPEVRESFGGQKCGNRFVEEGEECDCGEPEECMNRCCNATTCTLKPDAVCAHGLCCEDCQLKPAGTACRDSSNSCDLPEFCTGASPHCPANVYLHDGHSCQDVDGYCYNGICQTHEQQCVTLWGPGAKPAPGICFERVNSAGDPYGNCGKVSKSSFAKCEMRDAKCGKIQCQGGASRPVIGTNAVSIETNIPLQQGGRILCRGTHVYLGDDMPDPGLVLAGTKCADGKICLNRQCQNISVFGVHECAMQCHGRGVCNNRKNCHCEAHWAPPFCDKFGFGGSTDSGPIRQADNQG
Excerpt: as §1

[5] = target: recombinant human ADAM17 (R&D Systems) (human, UniProt P78536 215-671, limits assumed)
Excerpt: as §1

Measured: binding result

purified human MMP-3 (Daiichi Fine Chemical), sequence (P08254 18-477 limits assumed): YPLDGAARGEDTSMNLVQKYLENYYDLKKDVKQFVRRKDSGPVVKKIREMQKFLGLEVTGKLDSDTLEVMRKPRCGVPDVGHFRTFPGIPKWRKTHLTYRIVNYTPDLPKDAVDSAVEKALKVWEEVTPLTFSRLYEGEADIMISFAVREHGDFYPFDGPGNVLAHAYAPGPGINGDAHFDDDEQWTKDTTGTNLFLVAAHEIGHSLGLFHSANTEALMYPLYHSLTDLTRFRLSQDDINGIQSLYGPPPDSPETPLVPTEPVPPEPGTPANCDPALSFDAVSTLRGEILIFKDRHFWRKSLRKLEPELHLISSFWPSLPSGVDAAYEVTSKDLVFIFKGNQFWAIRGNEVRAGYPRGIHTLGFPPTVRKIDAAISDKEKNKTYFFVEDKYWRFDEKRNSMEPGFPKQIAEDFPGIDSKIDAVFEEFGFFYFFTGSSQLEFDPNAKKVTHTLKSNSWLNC
recombinant human ADAM17 (R&D Systems), sequence (P78536 215-671 limits assumed): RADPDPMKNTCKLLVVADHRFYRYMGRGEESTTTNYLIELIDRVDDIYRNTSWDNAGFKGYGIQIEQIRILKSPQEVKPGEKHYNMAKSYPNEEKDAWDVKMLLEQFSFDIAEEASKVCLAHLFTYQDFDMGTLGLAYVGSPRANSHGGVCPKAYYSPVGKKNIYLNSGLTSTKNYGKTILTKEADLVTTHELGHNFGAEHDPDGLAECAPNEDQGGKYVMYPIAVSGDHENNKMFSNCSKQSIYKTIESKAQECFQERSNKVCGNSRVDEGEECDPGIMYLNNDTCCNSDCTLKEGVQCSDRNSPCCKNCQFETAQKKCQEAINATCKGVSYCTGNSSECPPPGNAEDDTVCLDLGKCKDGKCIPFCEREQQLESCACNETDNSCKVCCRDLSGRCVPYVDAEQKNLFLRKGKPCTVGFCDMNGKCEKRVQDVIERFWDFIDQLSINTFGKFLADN

B1: Fab of clone 237-53 (Fab, V domains shown)
VH: QVQLVQSGAEVKKPGSSVKVSCKASGGTFSSFAISWVRQAPGQGLEWMGGIFPIFGQANYAQKFQGRVTITADESTSTAYMELSSLRSEDTAVYYCARFSDWWEWQMDYWGQGTLVTVSS
VL: DIVMTQSPDSLAVSLGERATINCRSSQSILYSSNNNYLAWYQQKPGQPPKLLIHTASARESGVPDRFSGSGSGTDFTLTISSLQAEDVAVYYCQQYYSVSITFGQGTKVEIKR
no binding (tested: 5 µg/ml): all assays above
